# Assay results as given in patent US7629135B2, “Toll-like receptor agonists and antagonists and methods of use thereof” (The Board of Trustees of the University of Illinois, priority 2006, dated 2009).
# B1: SAA: Recombinant human SAA purchased from PeproTech; major acute-phase protein of 104 amino acids (protein, UniProt P0DJI8 19-122, looked up)
# Serum amyloid A-1 protein: RSFFSFLGEAFDGARDMWRAYSDMREANYIGSDKYFHARGNYDAAKRGPGGAWAAEVITDARENIQRFFGHGAEDSLADQAANEWGRSGKDPNHFRPAGLPEKY
# Experiments:
# TLR2-HeLa cells [1] = test: IL-8 secretion in TLR2-HeLa cells (ELISA); format: cell-based, human; conditions: SAA 1 μM, up to 24 hours
# Experimental: FIG. 7 is a series of studies showing SAA-induced response in transfected HeLa cells. […] Pam3CSK4 is a known agonist for TLR2 and was used as a control. […] FIG. 7B is time course of SAA-induced IL-8 secretion in TLR2-HeLa cells compared to mock-transfected HeLa cells. SAA was used at 1 μM and the cells were stimulated for up to 24 hours. The supernatant was collected and secreted IL-8 was measured using ELISA.
# In addition to the TLR2-HeLa cell line, a HeLa cell line stably expressing TLR2 and a 5xNF-κB luciferase reporter (pNF-kappaB-Luc, FIG. 13) was generated. This second cell line offers improved consistency between experiments by eliminating the need for transiently transfecting the NF-κB reporter each time an reporter assay is conducted. […] The TNFαc-stimulated reporter activity was used as an independent indicator for comparison. Both cell lines have been and will be used in characterization of SAA-induced functions and in screening assays. […] The TLR2-independent effect in IL-8 secretion was determined in parallel, in mock-transfected HeLa cells lacking the exogenous TLR2 (FIG. 7B).
# G-CSF transcript in BMDM = test: Cytokine transcript induction in BMDM (RT-PCR, real-time PCR); format: cell-based, mouse; conditions: SAA 1 μM
# Experimental: To investigate the mechanism for SAA-induced G-CSF production, the level of G-CSF transcript in SAA-stimulated BMDM was determined. […] The induction of G-CSF transcript peaked at 4 h after SAA stimulation. Since transcription of the G-CSF gene involves NF-κB binding to the RelA/p65 consensus element in the CK-1 site of the G-CSF promoter (Dunn et al., 1994; Hareng and Hartung, 2002), the role of NF-κB in SAA-stimulated G-CSF expression was determined. […] Using oligonucleotide probe based on the sequence of the CK-1 site (−161 to −152 in the G-CSF promoter), a protein •DNA complex (FIG. 2C) was identified. […] Inclusion of a RelA/p65 antibody blocking peptide in the assay abrogated the immunoprecipitation (FIG. 2D).
# TLR2 mediates the effect of SAA in G-CSF expression and neutrophila: To further determine a role of TLR2 in SAA-stimulated G-CSF expression and neutrophilia, wild-type and tlr2^−/− BMDM were stimulated with SAA (1 μM) and the level of G-CSF transcript (FIG. 5A) was determined. SAA induced a 37-fold induction of the mouse G-CSF transcript within 2 h of stimulation. […] Under similar experimental conditions, SAA stimulated increases in the transcripts of M-CSF (encoded by csf1; 11-fold over basal) IL-12p40 (33-fold) and IL-1 receptor antagonist (2.7-fold). In tlr2^−/− BMDM, the SAA-stimulated induction of these transcripts was reduced by 84% (M-CSF), 86% (IL-12p40), and 80% (IL-1 receptor antagonist), respectively. […] The effects of TLR2 gene deletion on SAA-induced G-CSF production and neutrophilia were determined in vivo. Subcutaneous injection of SAA was carried out in wild-type and tlr2^−/− mice for up to 7 days.
# Measurement of G-CSF expression: To measure the secreted G-CSF from human monocytes and mouse macrophages in vitro, cells were placed in serum-free DMEM medium and stimulated with the indicated ligands. Cell-free supernatants were collected by centrifugation at 1,000×g for 30 sec and assayed for human or mouse G-CSF using ELISA. Human PBMC were used as 2×10^6 cells/ml/sample, and mouse BMDM were seeded at 10^6 cells/ml and used as 0.5 ml/sample. To measure mouse plasma G-CSF, blood samples were collected and centrifuged at 1,000-2,000×g for 10 min at 4° C. Plasma samples were appropriately diluted and then checked for G-CSF concentration using ELISA. To measure mouse G-CSF transcripts, mouse […] (10^6 cells/ml, 5 ml/sample) were stimulated with 1 μM SAA for different periods of time. Total RNA was isolated with an RNeasy isolation kit (Qiagen) and cDNA was prepared with Superscript reverse transcriptase (Invitrogen). PCR amplification of G-CSF transcripts was accomplished with specific primers (F346: 5′-[…]-3′ (SEQ ID NO:3) and R980: 5′-CAGGGCTCACTGATTT TTTGG-3′) (SEQ ID NO:4), generating a 634-bp fragment. M-actin gene (a 469 bp fragment) was used for verification of equal loading and of RT-PCR efficiency. Real-time quantitative PCR was performed on a ABI PRISM 7000 Sequence Detection System (Applied Biosystems) as described previously (He et al., 2006). All data were analyzed with the ABI PRISM 7000 SDS software (version 1.1). Relative level of mRNA for G-CSF was determined by normalizing with β-actin mRNA level. The sequences of the primers used are: F229 (5′-[…]-3′) (SEQ ID NO:5) and R502 (5′-[…]-3′) (SEQ ID NO:6) for G-CSF and F413 (5′-CCCTAAGGCCAACCGTGAA-3′) (SEQ ID NO:7) and R882 (5′-[…]-3′) (SEQ ID NO:8) for β-actin.
# TLR2-HeLa cells [2] = test: MAP kinase phosphorylation and IκBα degradation in TLR2-HeLa cells (Western blotting); format: cell-based, human
# Experimental: FIG. 8 is a series of protein gels and corresponding Western blotting graphs showing that SAA-induced TLR2-dependent signaling in transfected cells. Serum-starved TLR2-HeLa and mock-transfected HeLa cells were stimulated with SAA (1 μM) or Pam3CSK4 (1 μg/ml) for the indicated time. The phosphorylation level of ERK1/2 (A), p38 (B) and JNK (C) was detected by Western blotting using antibodies recognizing the phosphorylated forms of the MAP kinases (blots). (D) The level of cytoplasmic IκB ? was detected by Western blotting using an anti-IκB ? antibody and the β-actin levels in the corresponding samples were shown as loading controls. […] A representative set of data, from 3 repeating experiments, is presented.
molecule,measurement,setting,value
B1,secretion of IL-8,TLR2-HeLa cells [1],time-dependent increase in the secretion of IL-8
same,reduction of G-CSF transcript induction in tlr2−/− vs wild-type BMDM,G-CSF transcript in BMDM,94%
same,reduction of IL-1 receptor antagonist transcript induction in tlr2−/− BMDM,G-CSF transcript in BMDM,80%
same,reduction of IL-12p40 transcript induction in tlr2−/− BMDM,G-CSF transcript in BMDM,86%
same,reduction of M-CSF transcript induction in tlr2−/− BMDM,G-CSF transcript in BMDM,84%
same,time of peak induction of G-CSF transcript,"G-CSF transcript in BMDM; BMDM, RT-PCR",4 h
same,induction of G-CSF transcript over basal level,G-CSF transcript in BMDM; tlr2−/− BMDM,2 fold
same,increase in IL-1 receptor antagonist transcript,G-CSF transcript in BMDM; wild-type BMDM,2.7 fold
same,increase in IL-12p40 transcript,G-CSF transcript in BMDM; wild-type BMDM,33 fold
same,increase in M-CSF transcript over basal,G-CSF transcript in BMDM; wild-type BMDM,11 fold
same,induction of mouse G-CSF transcript,"G-CSF transcript in BMDM; wild-type BMDM, within 2 h, real-time PCR",37 fold
same,IκBα degradation,"TLR2-HeLa cells [2]; TLR2-HeLa cells, SAA 1 μM",IκBα degradation
same,"phosphorylation of MAP kinases ERK1/2, p38 and JNK","TLR2-HeLa cells [2]; TLR2-HeLa cells, SAA 1 μM",robust phosphorylation
same,ERK1/2 phosphorylation in mock-transfected cells,"TLR2-HeLa cells [2]; mock-transfected HeLa cells, 10 min, SAA 1 μM, Pam3CSK4 1 μg/ml",induced ERK1/2 phosphorylation
same,IκBα degradation in mock-transfected cells,"TLR2-HeLa cells [2]; mock-transfected HeLa cells, SAA stimulation",No IκBα degradation
